Laboratory results: the nanobody polyreactivity screen of Harvey et al. (2022)

assay: yeast display, Sf9 membrane polyspecificity reagent, FACS + sequencing; frameworks hold sequencing errors
Method in brief: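 Galactose-induced (36–48 hours) yeast carrying a synthetic nanobody display library were exposed to 10% biotinylated, detergent-solubilized Sf9 membrane reagent at 4 °C for 1 hour. FACS followed streptavidin microbead enrichment, using low and high (top ~1%) gates for expression (anti-HA) and reagent binding (streptavidin). Colony PCR, MiSeq 2 × 250 sequencing and CDR-length filtering followed. Labels for polyreactivity reflect the gate of origin.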

Sequence	polyreactivity (PSR sort gate)
QVQLVESGGGLVQAGGSLRLSCAASGRIFRYNAMGWYRQAPGKERELVAAIRFSGGSTYYADSVKGRFTISRDNAKNTVYLQMNSLKPEYSAVYYCAKVYFRVQSGMDYWGQGTQVTVSS	low polyreactivity
QVQLVESGGGLVHAGGSIRLSCAASGSIFRLYAMGWYRQAPGKERELVATISQRGGRTYYADSVKGRFTISRDNAKNTVYLQMNILKPEVTAVYYCNADHYYPWLDYWGLGTQVTVSS	high polyreactivity
LVQLQESGGGLVQAGGSLRLSCAASGSIYKVVDMGLYRQAPAKEREFVATIGEGGNTYYADSVKGRFTISRDNAKNTVYLQMNSLKPEDTAVYYCNDDIGVYAYESDYWGQGTQVTVSS	low polyreactivity
QVQLVESGGGLVQAGGSLRLSCAASGTFWLYTMGWYRQAPGKERELVAAISLTAGNTYYADSVKGRFTISRDNAKYTVYLQMNSLKPEDTAVYYCAADHYYYTRYEYWGQGTQVTVSS	low polyreactivity
QVQLVESGGGLVQAGGSLRLSCAASGSIFRYYAMGWYRQAPGKEREFDASITYRGGRTYYADSVKGRFTISRDNAKNTVYLQMNSLKPEDTAVYYCAARTRAGAWTSKYHDYWGQGTQVTVSS	high polyreactivity
QVQLVESWGGLVQAGGSLRLSCAASGIIFRYYAIGWYRKAPGKERELVAAISRSGARTYYADSVKGRFTISRDNAKNTVYLQMNSLKPEDTAVYYCATEPTSGRFYYWGQGTQVTVSS	high polyreactivity
QVQLVESGGGLVQAGGSLRLSCAASGSTIYWYAMGWYRQAPGKERELVAAITDSGDDTYYADSVKGRFTISRDNAKKTVYLQMNSLKPVDTAVYYCAGEAWSVAPYEYWGQGTQVTVSS	low polyreactivity
QVQLVESGGGLVQAGGSLRLSCAASGIIFANYAMGWYRQAPGKERELVAAITSSGSTYYADSVKGRFTISRDNAKNTVYLQMNSLKPEDTAVYYCAARRRGRFYYWGQGTQVTVSS	high polyreactivity
QVQLVESGGGLVQAGGSLRLSCAASGFIFQRYAMGWYRQAPGKERELVAAITRTGGRTYYADSVKGRFTISRDNAKNTVYLQMNSLKPEDTAVYYCAADRTLSYEYWGQGTQVTVSS	high polyreactivity
QVQLVESGGGLLQAGGSLRLSCAASGFNFGRYAMGWYRQAPGKERELVATISRSGGSTYYADSVKGRFTISRDNSKNTVFLQMNSLKPEDTAVYYCNALILPTKMGYWGQGTQVTVSS	low polyreactivity
QVQLVESGGGLVQAGGSLRLSCAASGFTFEENAMGWYRPAPGKERELVAAINWSGGNTYYADSVKGRFTISRDNAKNPDSLQMNSLKPEDSAVYYCNAAGAGDDYDYWGQGTQVTVSS	high polyreactivity
QVQLVESGGGLVQAGGSLRLSCAASGNTIDSYAMGWYRQAPGKERELVAAISTSGGSTYYADSVKGRFTISRDNAKNTVYLQMNSLKPEDTAVYYCNATWTITYDYWGQGTQVTVSS	low polyreactivity
QLQLEESGGGLVQAGGSLRLSSAASGSIFYPNVMGWYRQAPGKERELVAAISWGGTSTNYADSVKGRFTISRDNAKNTVYLQMNSLKPEDTAVYYCAARTYWYGYNYWGQGTQVTVSS	high polyreactivity
QVQLVESGGGLVQAGGSLRLSCAASGSIFNSYAMGWYRQAPGKERELVAAISGSGTRTYYADSVKGRFTISRDNAKNTVYLQMNSLKPEDTAVYYCAGYGYWGQGTQVNVSS	high polyreactivity
QVQLVESGVGLVQAGGSLRLSCAASGFIFCGYAMVWYRHAPGKERELVAAISWSGDNTYYADSVKGRFTISRDNAKNTVYFQMNSLKPEDTAVYYCAADSYGQEYDYWGQGTQVSVSS	low polyreactivity
QVQLVESGGGLVQAGGSLRLSCAASGRIFVGYAMGWYRQAPGKERELVAAINRSGSSTYYADSVKGRFTISRDNAKNTVYLQMNSLKPEDTAVYYCNAARRQGNRYTYDYWGQGTQVTVSS	high polyreactivity
QVQLVESGGGLVQAGGSLRLSCAASGSTFVPNAMGWYRQAPGKERELVAAISSVGSTNYADSVKGRFTISRDNAKNTVYLQMNSLKPEDTAVYYCAVRYPWRYFKYGYWGQGTQVTVSS	low polyreactivity
QVQLVESGGGLVQAGGSLRLSCAASGRIFYLNAMGWYRQAPGKERELVAAISGSTGSTYYADSVKGRFTISRDNAKNTVYLQMNSLKPEDTAVYYCNAGGVYDEFNYWGQGTQVTVSS	low polyreactivity
QVQLVESGGGLVQAGGSLRISCAASGSTFSYYAMGWYRQAPGKERELVADISWSGGSTYYADSVKGRFTISRDNAKNTVYLQMNSQKPEDTAVFYCAARGYVRWYNRYDYWGQGTQVTVSS	low polyreactivity
QVQLVESGGGLVQAGGSLRLSCAASGSTFDYNTMGWYRQAPGKERELVAAISESGGSTYYADSVKGRFTISRDNAKNTVYLQMNSLKPEDTAVYYCATDDFGGYFGEYDYWGQGTQVTVSS	low polyreactivity
QVQLQESVDGLVQAGGSLSLSSAASGTIFSDYGMGGYRQAPGKERELLAGISDGCNTNYTDSVKGRCTISRDNAHRVSADEQPETGGYRGVLLRGSERWLLFYVYWGQGTQVTVSS	high polyreactivity
QVQLVESGGGLVQAGGSLRLSCAASGITFWGYAMGWYRQAPGKEREFVARINWSGGRTYYAESVKGRFTISRDNAKKTVYLQMNSLKPEDTAVYYCAATSRIYGYRTYDDWGQGTQVTVSS	high polyreactivity

Sequence	polyreactivity (PSR sort gate)
QVQLVESGGGLVQAGGSLRLSCAASGNTFNIYAMGWYRQAPGKETEFVAAITVSDTSTYYADSVKGRFTISRDSAKNTVYLQMKSLKPEDTAVYYCNADWWGTYDYYYWGQGTHVTVSS	low polyreactivity
QVKLVESAAGLVQPGGSHRLSCAASGRIFSYYAMGWSRQAPGKDRELVAAISRTGGTTYYADSVKGRFTSSRDNAKNTVYLQMNSLKPEDTAVYYCNAVKAPYLSYDYWGKGTQVTVSS	high polyreactivity
QVQLVESGGGLVQAGGSLRLSCAASGLTFTHYAMGWYRQAPGKEMELVAAISSGGRTYYADSVKGRFTISRDNAKNTVYLQMNSLKPEDTGVYYCAAVTTVYTKYGYWGQGTQVTVSS	high polyreactivity
QVQLVDSAGCLVQAGGTLRLSGSASGSIFDAYAMGWYRQAPGKERELVASITSGGRTTYADSVKGRFTISRDNALNTVYLQMNSLKPEDTAVYYCAALRPGPRDDYWGQGSQVTVSS	high polyreactivity
QVQLVESGGGFVQAGGSLRLSCAATGSIFPQNAMGWYRQAPGKERELVASISSGGRTNYADSVKGRFTISRDYAKNTVYLQMNSLKPEDSAVYFCAKTRIRYKPLHFYYWGQGTQVTVSS	low polyreactivity
QVQLVESGGGLVQAGGSLRLRCAASGSNFYQNAMGGYRQAPGKETALLATIDVNTVSTSYADSVKGRFTISRDNAKNTVYLQMHSLKPEDTAVYYCAAGPDVGVLGDRDPWKNVKYDYWGQGTQVTASS	low polyreactivity
QVQFEESGGGLVQAGGSLRLSCAASGSTFQGYAMGWSRQAPGKERELVAAISSGGSTNYADSVKGRFTISRDNAKNTVYLQMNSLKPEDTAVYYCNVDLTTVGHWYYYRPGYDYWGQGTQVTVSS	low polyreactivity
QVQLVESGGGLVQAGVSLRLSCAASGRTFGQYVMGWYRQAPGKERELVAAIRSGGSTYYADSVKGLFTISRDNAKNTVYIQLNSLKPEDTAVYYCNADSGPIDGRGGYWGQGTQVTVSS	low polyreactivity
QVQLVESGGGLVQAGGSLRLSCAASGSTFSDNAMGGYRQAPGKERELVAAINETGGSTYYADSVKGRFTISRDNAKNTVYLQMNSLKPEDTAVYYCNADIDPYGATYAIEYDYWGQGTQVTVSS	low polyreactivity
QVQLVESGGGLVQAGGSLRLSGAASGITIKRYAMGWYRQAPGKEREFVATISQSGTSTYYADSVKGRFTISRDNAQNTVYLQMNSLKPEDTAVYYCAADYIGYWYGYYSWGQGTQVTVSS	low polyreactivity
QVQLVESGGGLDQAGGRLRLSSAASGTTFAVNAMGWYRQAPGKERELVAAITSGGSTKYADSVKGRFTISRDNAKYSVYFQMNSLKREDSAVYYIPDSKLWALGWKFYYWGQGTQVTVSS	low polyreactivity
QVQLVESGGGLVQAGGSLRLSCAASGYTFYVYAMGWYRQAPGKERELVADISTSDGSTYYADSVKGRFTISRDNAKNTVYLQMNSLKPEDTAVYYCNTDGSHGLYDWFWPANNDDWGQGTQVSVSS	low polyreactivity
QVQLVESGGGLVQAGGSLRLSCAASGRTLVSYAMGWYRQAPGKERELVATISWSGGSTYYADSVKGRFTISRDNAKNTVYLQMYSLKPEDTAVYYCNRSLTGYDELGYPVPYTYDYWGQATQVTVSS	low polyreactivity
QVQLVESGGGLVQAGGSLRLSCAASGSILARYAMGWYRQAPGKERQLVAAISYNGCSTYYADSVKGRFTISRDNAKNTVYLQMNSLKPEDTAVYYCAKAYDTTLTYNYWGQGTQVTVSS	low polyreactivity
QVQLVESGGGLVQAGGRLRLSCAASGSIFIGYAMGWYRQAPGKERELVATISGSGGSTYYADSEKGRFTISRDNAKNTVSLQMNSLKPEDSAVYYCAAVSVSSWYDYWGQGTQVTVSS	low polyreactivity
QVQLVESGGGLVQAGGSLRLSCAASGFTFGFYAMGWYRQAPGKERELVATINYNGGSTYYADSVKGRFTISRDNAKNTVYLEMNSLKPEDTAVYYCATDYGWAPSYWYDSCGQGTQVTVSS	low polyreactivity
QVQHVESGGGIVQAGGSLRLSCPASGSIYRKYAMGWSRQTPGKERELVAAIRSSGGSTYYADSVKGRFTISRDNAKNTVYLQMNSLKPEDTAVYYCASTYYRPSRYDYCGQGTQVTVSS	high polyreactivity
QVQLVESGGGLVQAGGSLRLSCAASGSIFLFNAMGWYRQAPGKERELVAAINRDDSTYYADSVKGRFTISRDNAKNTVYLQMNSLKPEDTAVYYCAARQRLSWKTEYYWGQGTQVTVSS	low polyreactivity
QVHLVESGGGIVQAGGSLRLSSAATGRTFPYNAMGWYRQAPGKERELVAAISSGGSTNYADSVKGRFTISRDNAKNTVYLQMNSLKPEDTAVYYCATKYQRRPYRYYYWGQGTQVTVSS	low polyreactivity
QDQLVESGGGLVQAGGSLRLSCAASGITFDYYVMGWYRKAPGKEMELVAAISWSGGTTYYADSVKGRFTISRDNAKNTVSLQMNSLKPEDTAVYYCNAEHTGSFYGGYPWEMEYWGQGTQVTVSS	low polyreactivity
QVQLVESGGGIVQAGGSLRLSCAASGRIFYYNAMGWYRQAPGKERELVAAISTRGTSTYYAESVKGRFTISRDNAKNTVYLQMNSLKPEDTAVYYCNRASGNWQSYLSYDYWGQGTQVTVSS	low polyreactivity
